Assay results taken from patent publication US20220194983A1 (Bicycle, published 2022).
One block for each binder: values may come before it. Numbered stars: 1 amine (or outer) side, 2 acyl side, 3 side chain; on linkers, the order of the positions; unused ones are H or OH. Bridge positions count the residues as written; N and C are the ends. Square brackets hold non-standard residues; d marks the D form. Ends that are not written are not given here. TBMB = c1c(C[*:1])cc(C[*:3])cc1C[*:2]; Dap(Me) = CNC[C@H](N)C(=O)O

How the values were obtained:
[1] = biological target: T1, prostate-specific membrane antigen (PSMA) (human, UniProt Q04609 44-750, limits assumed); test: fluorescence polarization binding assay
T1 construct: also called Glutamate carboxypeptidase II; GCPII
T1 sequence (Q04609 44-750 limits assumed): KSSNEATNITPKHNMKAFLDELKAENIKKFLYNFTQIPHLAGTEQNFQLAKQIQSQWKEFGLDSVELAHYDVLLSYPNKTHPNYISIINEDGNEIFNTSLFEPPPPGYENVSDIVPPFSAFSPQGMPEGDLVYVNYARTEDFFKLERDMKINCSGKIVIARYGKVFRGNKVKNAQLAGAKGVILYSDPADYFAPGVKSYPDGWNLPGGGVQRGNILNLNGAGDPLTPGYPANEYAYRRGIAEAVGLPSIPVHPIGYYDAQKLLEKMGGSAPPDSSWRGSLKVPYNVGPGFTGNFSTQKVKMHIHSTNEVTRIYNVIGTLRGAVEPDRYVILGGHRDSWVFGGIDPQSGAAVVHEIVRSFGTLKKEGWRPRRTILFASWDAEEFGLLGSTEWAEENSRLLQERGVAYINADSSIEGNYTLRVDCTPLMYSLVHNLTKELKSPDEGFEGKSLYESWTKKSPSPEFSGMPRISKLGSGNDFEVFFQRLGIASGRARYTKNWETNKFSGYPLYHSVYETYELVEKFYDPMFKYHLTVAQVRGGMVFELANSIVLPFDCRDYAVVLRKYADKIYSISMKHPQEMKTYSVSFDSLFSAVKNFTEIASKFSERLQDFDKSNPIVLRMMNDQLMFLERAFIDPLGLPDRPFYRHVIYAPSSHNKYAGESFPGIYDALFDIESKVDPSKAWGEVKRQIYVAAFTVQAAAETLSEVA
Method: PSMA binding was measured using the fluorescence polarization assay methodology described in Shen et al (2013) PLOS ONE 8(7), e68339 and PSMA enzyme inhibition was measured using the methodology described in WO 2009/070302.

[2] = biological target: T1, prostate-specific membrane antigen …; test: fluorescence polarization, FP (h)
[3] = biological target: T1, prostate-specific membrane antigen …; test: cell-based or functional assay

Binder: EVCWD[Dap(Me)]FMMEDGT[Dap(Me)]A (linker 3-6-14 via TBMB, Bicyclic peptide on TBMB scaffold) [21-31-04-T01-N017]
Ki [1]: 700 nM

B1: 21-31-04-T01-N001 (peptide)
peptide: EVCWDCFMMEDGTCA
modifications: linker 3-6-14 via TBMB
notes: Bicyclic peptide on TBMB scaffold, all thioether
Ki [1]: 3 nM

B2: 21-31-04-T01-N007 (peptide)
peptide: EVCWDCFMMEDGTCAXXXXXXK
modifications: N-terminal acetyl; D-Glu at 1; Cys 3, 6 and 14 joined by thioether linkages to TBMB scaffold; X16-X21 = Sar; D-Lys at 22
Ki [2]: 30 nM

Binder: CIECYIMEDGTCA (linker 1-4-12 via TBMB) [21-31-01-N001]
Ki [2]: 70 nM

The remaining lines, values ahead:

Ki [2]: 6 nM
Binder: FCSECYMMEDGTCA (linker 2-5-13 via TBMB) [21-31-11-T01-N001]

Enzyme inhibition IC50 [3]: 695 nM
Ki [2]: 40 nM
Binder: ACMVCHMMEDGTCA (linker 2-5-13 via TBMB) [21-31-N002]
